Experimental data published in patent publication US20240398911A1.

Tests used:
[1] = molecular target: myc-tagged full-length S of SARS-CoV-2 variant P.1 (Gamma) expressed on Expi293F cells (SARS-CoV-2 P.1 (Gamma))
[2] = molecular target: myc-tagged full-length S of SARS-CoV-2 variant B.1.351 (Beta) expressed on Expi293F cells (SARS-CoV-2 B.1.351 (Beta))
[3] = molecular target: myc-tagged full-length S of SARS-CoV-2 variant B.1.1.7 (Alpha) expressed on Expi293F cells (SARS-CoV-2 B.1.1.7 (Alpha))

Substance	EC50 (read off the curve) [1] [nM]	EC50 (read off the curve) [2] [nM]	EC50 (read off the curve) [3] [nM]
REGN10987 (imdevimab) (antibody)	0.2	0.3	–
sACE22.v2.4 fused to human IgG1 Fc (Fc fusion)	0.8	–	0.7
